The source of these data is patent US20200062847A1 (XIANGTAN TENGHUA BIOSCIENCE, published 2020).

Residue numbers refer to the chain shown, from its start.

One experiment concerns the target T1, mouse PD-1 (mouse, UniProt Q02242 25-167, limits assumed).
T1 sequence (looked up): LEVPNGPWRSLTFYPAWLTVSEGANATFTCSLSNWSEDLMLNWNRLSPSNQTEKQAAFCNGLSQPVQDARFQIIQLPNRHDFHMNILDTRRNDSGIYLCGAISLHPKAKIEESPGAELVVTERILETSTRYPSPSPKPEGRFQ
The experiment in a line: ELISA. On the technique in general: In an ELISA, binding on a coated surface is turned into a signal by an enzyme label.

For experiment [1], the target named is T2, recombinant human PD-1 (human, UniProt Q15116 25-167, limits assumed).
T2 construct: also called human PD-1 protein; soluble PD-1
T2 sequence (Q15116 25-167 limits assumed): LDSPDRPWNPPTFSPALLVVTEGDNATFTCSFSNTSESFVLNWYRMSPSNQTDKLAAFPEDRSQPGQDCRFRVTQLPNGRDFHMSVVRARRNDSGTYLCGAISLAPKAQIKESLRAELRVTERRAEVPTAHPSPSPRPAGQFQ
The experiment in a line: competition ELISA on coated human PD-1, antibody titrated against 50 ng/ml Nivolumab as competitor; EC50 estimated at half-maximal absorbance.
Protocol: The assay was conducted essentially as follows. […] HRP-conjugated anti-human antibody was added and incubated.

The target in experiment [2] is T2, recombinant human PD-1. Put plainly: SPR (Biacore), antibody captured via anti-human IgG.
Protocol: This technology allows the label-free determination of the microscopic rate constants for binding (kₐ) and dissociation (kd) of a ligand to a receptor. […] The kinetic traces were evaluated with the Biacore™ T2000. The full set of these traces with increasing concentrations is taken together and is called a run. Two zero concentration samples (blank runs) were included in each analyte concentration series to allow double-referencing during data evaluation. The kinetic rate constants for association (kₐ) and dissociation (kd) as well as the dissociation equilibrium constant (KD) were calculated.

B1: Abs-r-924 (antibody, V domains shown)
VH: QESVKESGGGLVKPGDTLTLTCKVSGFSISSYGMHWVRQAPGKGLEWIGVISYDGSNKYYADSVKGRFTISRNTNQNTVTLKMTSLTADDTATYFCARYYYYYGMDVWGQGTLVTVSS
VL: EIVLTQTPSSVSAAVGSTVTINCRGSQSLSSYLAWYQQKPGQRPKLLIYDVSNRATGVPRRFKGSGSGTQFTLTISGVQADDAATYYCQQRTNWPRAFGGGTKVDVKG
notes: Rabbit recombinant antibody expressed in HEK293; also called rabbit anti-human-PD-1 recombinant antibody Abs-r-924
As for B1, in the experiment with mouse PD-1, the binding result is “no binding”.

B2: Abs-h-924 (antibody, V domains shown)
VH: QVQLVESGGGVVQPGRSLRLSCAASGFTFSSYGMHWVRQAPGKGLEWVAVISYDGSNKYYADSVKGRFTISRDNSKNTLYLQMNSLRAEDTAVYYCARYYYYYGMDVWGQGTTVTVSS
VL: EIVLTQSPATLSLSPGERATISCRGSQSLSSYLAWYQQRPGQAPRLLIYDVSNRATGIPARFSGSGSGTDFTLTISGLEPEDFAVYYCQQRTNWPRAFGQGTKVEIKR
notes: also called humanized anti-human-PD-1 recombinant antibody Abs-h-924
As a reminder, the EC50 is the concentration giving half of the maximal effect. Usually koff stands for the first-order rate constant of dissociation. The term kon denotes a measure of how fast the partners come together. Turning to B2, the EC50 with recombinant human PD-1 [1] is 0.14 nM. Moreover, in the experiment with recombinant human PD-1 [2], the koff is 3.9e-06 s⁻¹ and the kon was found to be 1.22e+06 M⁻¹ s⁻¹.

B3: Abs-h-925 (antibody, V domains shown)
VH: B2 VH with E6D, G26A, G33A, G104Y, Q110K
VL: B2 VL with I21L, G25A, L29V, R39K, D50E, V51A, G77S, R96P
notes: also called humanized anti-human-PD-1 recombinant antibody Abs-h-925
For the molecule B3, the EC50 in the experiment with recombinant human PD-1 [1] is 0.15 nM. Besides, in the experiment with recombinant human PD-1 [2], the koff came to 3.2e-06 s⁻¹ and the kon is 1.19e+06 M⁻¹ s⁻¹.

B4: Abs-h-923 (antibody, V domains shown)
VH: QVQLVQSGAEVKKPGASVKVSCKASGYTFTSYAMHWVRQAPGQRLEWMGWSNAGNGNTKYSQEFQGRVTITRDTSASTAYMELSSLRSEDMAVYYCARYWYFDLWGRGTLVTVSS
VL: EIALTQSPATLSLSPGERATLSCRASQSGSSFVAWYQQKPGQAPRLLIYANNKRETGIPARFSGSGSGTDFTLTISSLEPEDFAVYYCGTYTDSPPTFGQGTKVEIKR
Take B4: in the experiment with recombinant human PD-1 [1], the concentration for a half-maximal effect (EC50) is 0.41 nM. For the same molecule, in the experiment with recombinant human PD-1 [2], the koff worked out at 7.9e-06 s⁻¹ and the kon is 1.15e+06 M⁻¹ s⁻¹.
